The text below walks through data of patent US20260258115A1 (MAPP BIOPHARMACEUTICAL, published 2026).

Experiment in all cases: BLI, IgG
Assay [1] concerns the target RSV prefusion F (preF), subtype A (respiratory syncytial virus, subtype A, UniProt P03420 26-513).
The target in assay [2] is RSV prefusion F (preF), subtype B (respiratory syncytial virus, subtype B).
Assay [3] concerns the target T1, RSV postfusion F (postF), subtype A (respiratory syncytial virus, subtype A, UniProt P03420 26-513).
T1 construct: also called F ΔFP; Postfusion subtype A

B1: ADI-20999 (antibody, V domains shown)
VH: QVQLQESGPVLVKPSETLSLTCTVSGGSITSSAYYWGWIRQPPGKGLEWIGSVSYSGTTSYTPSLKSRVTISGDASKEQFSLNLRSVTAADTAVYYCARQTKAFGRRDYGMDVWGQGTTVTVSS
VL: QPVLTQPPSVSAAPGQKVTISCSGSNSNIGSNFVSWYQQLPGTAPKLLIYENNKRPSGIPDRFSGSKSGPSATLGITGLQTEDEADYYCGTWDTGLSAHWVFGGGTKLTVL
notes: also called Ab 250
As for B1, the Kd (usually the free concentration of one partner at which half of the binding sites on the other are occupied at equilibrium, for simple one-to-one binding) was found to be 4.16 nM in assay [1] and 24.1 nM in assay [2]. The binding result in assay [3] was “no binding”.

B2: ADI-20988 (antibody, V domains shown)
VH: EVQLVESGGEVKKPGASVKVSCKTSGYPFSNYGISWMRLAPGQGLEWMGWISSYNGNTYYTKKFQGRVSMTTDTSTSTAYMELRSLRSDDTAVYYCARDVPVIAAHTFEYWGQGTLVTVSS
VL: ETTLTQSPLSLPVTLGQPASISCRSSESLVYSDGNTYLSWFQQRPGQSPRRIIYKVSNRDSGVPDRFSGSGSGTDFTLKISRVEAEDVGVYYCMQATHWPRDTFGQGTKVDIK
notes: also called Ab 240
As to B2, the Kd in assay [1] was 0.294 nM; in assay [2], 1.29 nM. Also, the binding result in assay [3] is “no binding”.

B3: ADI-20986 (antibody, V domains shown)
VH: EVQLVESGGGLVQPGGSLRLSCVASGFTFSNYWMNWVRQAPGKGLEWVANIKEDGSEIKYVDSVKGRFTISRDNAKNSLYLQMNSLRAEDTAVYYCARTEDSSSWFVAIDYYNYMDVWGKGTTVTVSS
VL: DIQVTQSPGTLSLSPGERATLSCRASQTVSSSYLAWYQQKPGQAPRLLFYGASSRATDIPDRFSASGSGTDFTLTIHRLEPEDFAVYYCQLYGRSPPYTFGQGTKVEIK
Consider B3, for which the Kd was determined as 0.414 nM in assay [1] and 1.25 nM in assay [2]. For the same molecule, the binding result in assay [3] was “no binding”.

B4: ADI-21014 (antibody, V domains shown)
VH: QVQLQESGPGLVKPSETLSLICTVSGGSISNYYWSWIRQPPGKGLEWIGYVWFGTTKYNPSLKNRVTISVDTGKNQVSLKVNSVTAADTAIYYCARDSSIWYRGAFEIWGQGTTVTVSS
VL: DIRLTQSPSSLSASVGDRVTITCQASQDISNHLNWYQQRPGKAPELLIYDASTLETGGPSRFSGSGSGTDFTLTISSLQPEDFADYYCQQYDNLPVTFGGGTKVDIK
Take B4: the values for the Kd in assay [1] and in assay [2] were 0.408 nM and 0.378 nM, respectively. Also, the binding result in assay [3] was “no binding”.

B5: ADI-20970 (antibody, V domains shown)
VH: EVQLLESGGGLVKPGGSLRLSCAVSGFSFSNAWMSWVRQAPGKGLEWVGRIRSKTDGGTTDYAAPVKGRFTISRDDSKNTLYLQMNSLKTEDTAVYYCTTAPRYSTSWYPGYYYYYYMDVWGKGTTVTVSS
VL: DIQMTQSPSSLSASVGDRVTITCQASQDINFYLNWYQQKPGKAPKLLIYDASNLETGVPSRFSGSVSGTDFTFTISSLQPEDFATYYCQQYDDLPAFGGGTKVEIK
Take B5: the Kd in assay [1] stood at 1.83 nM; in assay [2], 2.55 nM. Further, the binding result in assay [3] is “no binding”.

B6: ADI-20992 (antibody, V domains shown)
VH: EVQLVESGGGLVQPGGSLRLSCVVSGFTFKSYWMTWVRQAPGKGLEWVANIKEDGSEKYYVDSVKGRFTISRDNARNSLFLQMNSLRADDTAVYYCARNLEVSNEFYVVTDNYYLMDVWGQGTTVTVSS
VL: DIQLTQSPSSLSASVGDRVTITCRASQSISFFLNWYRQKPGKAPKLLIYAASTLQSGVPSRFSGSGSGTDFTLTISSLQPEDFASYYCQQSYSTPHTFGQGTKVEIK
For B6, the Kd in assay [1] turned out to be 0.956 nM; in assay [2] it was 1.22 nM. For the same molecule, the binding result in assay [3] is recorded as “no binding”.

B7: ADI-20991 (antibody, V domains shown)
VH: EVQLVESGGNLVKPGGSLRLSCAASGFTFSGYYMSWIRQAPGKGLEWISDISGGSSYTNYADSVKGRFTISRDNAKNSLYLQMNSLRAEDTAMYYCARVEYDTTGPFHFDYWGQGTLVTVSS
VL: QPVLTQPPSVSGAPGQRVTISCTGSSSNIGAGYDVHWYQQLPGTAPKLLIYGNNNRPSGVPDRLSGSKSGTSASLAITGLQAEDEADYYCQSYDSSLSGYVFGTGTKVTVL
In the case of B7, the figures for the Kd in assay [1] and in assay [2] were 0.234 nM and 0.258 nM, respectively. In addition, the binding result in assay [3] is “no binding”.

B8: ADI-20982 (antibody, V domains shown)
VH: EVQLVESGPGLVKPSQTLSLTCSVSGVSISRGSYYWSWIRQPAGGGLEWIGRIYTSGVTRYNPSLESRVTISLDSSQNQFFLRLSSVTAADTAVYYCATRESASYSSGPDAFDIWGQGTTVTVSS
VL: DIQMTQSPSTLSASVGDRVIITCRASQSVNSWLAWYQQKPGKAPKLLIYQASSLESGVPSRFSGSGSGTEFTLTINSLQPDDFATYYCQQYKTFSRPFGQGTKVEIK
For B8, the Kd is 4.88 nM in assay [1] and 5.45 nM in assay [2]. Besides, the binding result in assay [3] is “no binding”.

B9: ADI-20973 (antibody, V domains shown)
VH: EVQLLESGGGLVKPAGSLRLSCAASGFSFSSYYMNWIRQAPGKGLEWVSDISGGSSYTNYADSVKGRFTVSRDNAKNSVYLQMNSLRGEDTAVYYCARGASTAATYTPTFDYWGQGILVTVSS
VL: QPVLTQPPSVSGAPGQRVTISCTGSSSNIGAGYDVHWYQQLPGTAPKLLMFGNNNRPSGVPDRFSGSKSGTSASLAITGLRPEDEADYYCQSYDRRLTVVFGGGTKLTVL
With B9, the Kd was 0.308 nM in assay [1] and 0.417 nM in assay [2]. Moreover, the binding result in assay [3] is on record as “no binding”.

B10: ADI-20974 (antibody, V domains shown)
VH: EVQLVESGGGLVKPGGSLRLSCAASGFSFSSYQINWVRQAPGKGLEWVSSISGGSSYTDYADSIKGRFTISRDNAKKSAFLQMKSLRADDTAVYYCARALMATAGGLAFDIWGQGTMVTVSS
VL: QPVLTQPPSVSGAPGQRVTISCTGSGSNIGAGYDVHWYQQVPGTAPKLLILRNTNRPSGVPDRFSGSKSGTSASLAITGLQAEDEADYYCQSYDRSLSVVFGGGTKLTVL
For the molecule B10, the figures for the Kd in assay [1] and in assay [2] were 0.291 nM and 0.36 nM, respectively. For the same molecule, in assay [3], the binding result is recorded as “no binding”.

B11: ADI-20964 (antibody, V domains shown)
VH: QVQLVQSGAEVKKPGASVKVSCKASGYTFTHYGISWVRQAPGQGLEWMGWISAYNGNTNYAQKLQGRVTMTTDTSTSTAYMEVRSLRYDDTAVYYCARDVPVEAATSPEFWGQGTLVTVSS
VL: DIVMTQTPLSLPVTLGQPASISCRSSQSLVYSDGNTYLSWFQQRPGQSPRRLIYKVSNRDSGVPNRFSGSGSGTDFTLKISRVEAEDVGVYYCVQNTHWPAYTFGQGTKVEIK
With B11, the Kd in assay [1] came out at 0.36 nM; in assay [2] it was 2.49 nM. Further, in assay [3], the binding result is “no binding”.

B12: ADI-20979 (antibody, V domains shown)
VH: EVQLQESGPGLVKPSETLSLTCTVSGGSLRSYYWSWIRQPPGKGLEWIGNIYYGGSTNYNSSLKGRVTISIDTSKNQFSLRLSSVTAADTAVYYCARDGLFPMGEWDYWGQGILVTVSS
VL: QSALTQPASVSGSPGQSITISCTGTSNDVGDYNYVSWYQQHPGEAPKLMIYEVTNRPSGVSDRFSGSKSGNTASLTISGLQAEDEADYYCSSYTSSTSVVFGGGTQLTVL
notes: also called Ab 232
Regarding B12, the equilibrium dissociation constant (Kd) was 0.979 nM in assay [1] and 4 nM in assay [2]. For the same molecule, the binding result in assay [3] is given as “no binding”.

B13: ADI-20983 (antibody, V domains shown)
VH: EVQLVESGGALVQPGGSLRLSCSASGFTFSSYAMHWVRQAPGKGLEYVSAINNFGDKTYYTDSVEGRFTISRDNSKKTLYLQMSSLRPEDTAVYYCVKDRGYCSSPSCYAVPYYYFYGMDVWGQGTTVTVSS
VL: EIVMTQSPSSLSASVGDRVTITCQASQGISNYLHWYQQKPGKAPKLLIYDASNLEAGVPSRFSGSGAGTDFTFTISSLQPEDVATYYCQHYNNLPFTFGPGTKVDIK
On to B13, for which the Kd in assay [1] came to 0.213 nM; in assay [2], 1.17 nM; in assay [3], 2.05 nM.

B14: ADI-20969 (antibody, V domains shown)
VH: EVQLVESGGGLVKPGGSLRLSCAASGFKFSSYTMNWVRQAPGKGLEWVSSVSASSSYIFYADSVQGRFIISRDNAQNSLYLQMNSLRADDTAVYYCARDQYGPGHYYNPAWFDPWGQGTLVTVSS
VL: QPVLTQPPSVSGAPGQRVTISCTGTSSNIGAGYDVHWYKQLPGTAPKVLIYGNTNRPSGIPDRFSGSKSGTSASLAITGLKAEDEADYYCQSYDRSGSKVFGTGTKLTVL
In the case of B14, the Kd in assay [1] stood at 0.301 nM; in assay [2], 0.409 nM. Further, the binding result in assay [3] is given as “no binding”.

B15: ADI-21032 (antibody, V domains shown)
VH: EVQLVESGGGLVKPGGSLRLSCAVSGFKFSSYTMNWVRQAPGKGLEWVSSVSASSSYIFYADSVQGRFIISRDNAQNSLYLQMNSLRADDTAVYYCTRDQYGPGHYYNPAWFDPWGQGTLVTVSS
VL: QPVLTQPPSASGAPGQRVTISCTGSSSNIGAGYDVHWYQQLPGTAPKVLIYGNTNRPSGIPDRFSGSKSGTSASLAIIGLQAEDEADYYCQSYDRNGSKVFGTGTKLTVL
notes: also called Ab 280
As for B15, the values for the Kd in assay [1] and in assay [2] were 0.296 nM and 0.344 nM, respectively. The binding result in assay [3] is given as “no binding”.

B16: ADI-20962 (antibody, V domains shown)
VH: QVQLVQSGAEVKKPGASVKVSCKASGYTFSHYGLSWVRQAPGQGLEWMGWISAYNHNTNYAQKFQGRVTITTDTSTSTAYLEMRSLRSDDTAVYYCAREPPSDTAAGTGDYWGQGTLVTVSS
VL: DIVMTQSPLSLSVTLGQPASISCRSSQSLVYSDGNTYLTWFQQRPGQSPRRLIYKVSNRDSGVPDRFSGSGSGTDFTLKISRVEAEDVGVYYCMQGTQWPRTFGQGTKVDIK
Turning to B16, the Kd turned out to be 0.289 nM in assay [1] and 0.463 nM in assay [2]. The binding result in assay [3] is “no binding”.

B17: ADI-20971 (antibody, V domains shown)
VH: EVQLVESGGGLVKPGESLRLSCAASGFTFSDYSMTWIRQAPGKGLLEWIAYINSQSNYMDYADSVKGRFTISRDNAKNSLYLQMNGLRADDTAVYFCARDRRTFVAATLGWFDPWGQGTLVTVSS
VL: ETTLTQSPATLSVSPGERATLSCRASQSVSNNVAWYQQKPGQAPRVLIYAASTRATGIPARFSGSESGTEFTLTISSLQSEDFAVYYCQQYNNWPRTFGQGTKLEIK
Regarding B17, the Kd was 0.333 nM in assay [1] and 0.544 nM in assay [2]. Also, the binding result in assay [3] is on record as “no binding”.
